Data published in publication PMC11614891, “Accurate de novo design of heterochiral protein–protein interactions” (Cell Research, 2024).
Values joined by “and” are separate entries in the source; they are usually repeats but may differ in a detail not shown here. Equal entries are not always repeated. One block for each binder: values may come before it. Square brackets hold non-standard residues; d marks the D form. Ends that are not written are not given here.

B1: L-Pep-1 (peptide)
peptide: DEHELLETAARWFYEIAKRA
modifications: also: biotinylated (site not given here)
notes: artificial amphipathic alpha-helical peptide
B8: D-19437_(L-Pep-1) (designed binder)
chain: G[dS][dL][dP][dV][dE][dK][dI][dI][dR][dE][dA][dK][dK][dI][dL][dD][dE][dL][dL][dK][dR]G[dL][dI][dD][dP][dE][dL][dA][dR][dI][dA][dR][dE][dV][dL][dE][dR][dA][dR][dK][dL]G[dN][dE][dE][dA][dA][dR][dF][dV][dL][dE][dL][dI][dE][dR][dL][dR][dR][dE][dL][dS]G[dS]G
notes: source: chemically synthesized (Fmoc SPPS), folded by dialysis, purified by SEC

What was measured:
[1] = biological target: B8; test: ITC; MicroCal PEAQ-ITC, 19 injections; peptide titrated over the binder (L-19437 15 uM, D-Pep-1 150 uM); PBS pH 7.4; One Set of Sites mode; conditions: both partners purified
[2] = biological target: T1, D-TrkA (human, all residues D-amino acids (glycine achiral); biotin on the N-terminus; C-terminal amide); test: BLI; Octet RED96e; biotinylated target immobilised on streptavidin biosensors, binder in solution; PBS pH 7.4 with 0.02% TWEEN; 25 °C; global fit; conditions: both partners purified
T1 construct: also called mirror image of the D5 domain of human TrkA
T1 chain: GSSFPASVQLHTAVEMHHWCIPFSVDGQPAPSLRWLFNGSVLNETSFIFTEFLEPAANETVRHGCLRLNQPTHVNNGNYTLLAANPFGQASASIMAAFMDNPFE

[3] = biological target: T1, D-TrkA; test: as above; conditions: both partners purified
[4] = biological target: T2, D-IL-6 (human, all residues D-amino acids (glycine achiral); biotin on the N-terminus; C-terminal amide); test: as above; conditions: both partners purified
T2 construct: additional methionine at the N-terminus (Met1 of the chain of 186 residues); human interleukin-6, residues 28-212, made of D-amino acids; also called mirror image of human interleukin-6

[5] = biological target: T3, L-IL-6 (human, biotinylated for BLI (site not stated)); test: as above; conditions: both partners purified
T3 construct: additional methionine at the N-terminus; human interleukin-6, residues 28-212; also called human interleukin-6

[6] = biological target: T4, L-TrkA (human, biotinylated for BLI (site not stated)); test: as above; conditions: both partners purified
T4 construct: also called D5 domain of human tropomyosin receptor kinase A
T4 chain: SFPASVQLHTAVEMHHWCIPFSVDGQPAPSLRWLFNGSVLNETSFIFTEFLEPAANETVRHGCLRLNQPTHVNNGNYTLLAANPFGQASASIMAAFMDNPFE

[7] = biological target: B1; test: as above; conditions: both partners purified
[8] = biological target: the molecule itself; test: SEC; D-19437 alone on Superdex 75 Increase 10/300, compared with the mixture with L-Pep-1; fractions on SDS-PAGE, Coomassie blue
[9] = biological target: T4, L-TrkA; test: MST; Nanotemper Monolith NT.115; 50 nM L-TrkA, D-57445-evo in 16 two-fold dilutions from 122 pM to 40 uM; PBS with 0.05% Tween20, pH 7.4; MST power 40%; conditions: both partners purified

T3 sequence (chain, as listed by the source): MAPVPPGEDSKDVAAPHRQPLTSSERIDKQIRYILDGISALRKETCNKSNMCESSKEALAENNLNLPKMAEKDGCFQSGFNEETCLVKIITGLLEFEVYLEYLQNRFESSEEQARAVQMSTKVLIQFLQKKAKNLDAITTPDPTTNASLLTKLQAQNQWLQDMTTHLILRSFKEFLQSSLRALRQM
T2 sequence (chain, as listed by the source): as above

Binder: B1
Kd [1]: 12.4 ± 2.1 nM | stoichiometry N [1]: 0.932 ± 0.003 sites

B4: D-25367-evo_(L-IL-6) (designed binder)
chain: G[dE][dE][dE][dV][dI][dE][dY][dL][dT][dR][dE][dF][dK][dD][dD][dP][dE][dL][dV][dR][dL][dL][dR][dE][dA][dI][dE]G[dL][dL][dK][dA]G[dE][dD][dP][dE][dI][dV][dE][dM][dL][dI][dE][dS][dL][dI][dH][dI][dT]G[dN][dP][dR][dV][dA][dV][dK][dL][dA][dK][dE][dY][dA]
notes: D-protein form of 25367-evo; source: chemically synthesized, folded
Kd [5]: 3.03 nM and 8.75 nM | koff [5]: 0.000328 s⁻¹ and 0.000199 s⁻¹

B5: D-25367_(L-IL-6) (designed binder)
chain: G[dE][dE][dE][dV][dK][dE][dY][dL][dT][dR][dK][dF][dK][dD][dD][dP][dE][dL][dV][dR][dL][dL][dR][dE][dA][dI][dE][dV][dL][dL][dK][dA]G[dE][dD][dP][dE][dL][dV][dL][dS][dL][dI][dE][dS][dL][dI][dH][dI][dT]G[dD][dP][dR][dA][dA][dV][dK][dL][dA][dK][dE][dF]G
notes: D-protein form of design 25367; source: chemically synthesized (Fmoc SPPS), folded by dialysis, purified by SEC
Kd [5]: 28.3 nM and 48.3 nM | koff [5]: 0.0111 s⁻¹ and 0.0102 s⁻¹ | kon [5]: 391000 M⁻¹ s⁻¹ and 211000 M⁻¹ s⁻¹

B6: D-57445_(L-TrkA) (designed binder)
chain: [dS][dT][dE][dE][dL][dV][dE][dE][dL][dL][dE][dL][dA][dR][dK][dD][dP][dQ][dE][dA][dR][dK][dL][dV][dE][dE][dI][dV][dK][dE][dL]G[dL][dS][dP][dE][dR][dR][dF][dE][dL][dQ][dL][dA][dI][dV][dL][dA][dQ][dR][dD][dP][dE][dL][dA][dR][dR][dI][dL][dE][dR][dA][dL][dN][dH]
notes: as for B8
Kd [6]: 151 nM | koff [6]: 0.0351 s⁻¹ | kon [6]: 232000 M⁻¹ s⁻¹

B7: L-25367-evo_(D-IL-6) (designed binder)
chain: GEEEVIEYLTREFKDDPELVRLLREAIEGLLKAGEDPEIVEMLIESLIHITGNPRVAVKLAKEYA
notes: 25367-evo, evolved from design 25367 by directed evolution; the methods name only the three parents
Kd [4]: 0.724 nM and 1.68 nM | koff [4]: 0.000185 s⁻¹ and 0.00046 s⁻¹ | kon [4]: 256000 M⁻¹ s⁻¹ and 275000 M⁻¹ s⁻¹

Binder: B8
Kd [7]: 59.6 nM and 37.6 nM | koff [7]: 0.0162 s⁻¹ and 0.0122 s⁻¹ | kon [7]: 272000 M⁻¹ s⁻¹ and 324000 M⁻¹ s⁻¹ | stoichiometry N [8]: 2

B9: D-57445-evo_(L-TrkA) (designed binder)
chain: [dS][dT][dQ][dE][dL][dV][dE][dE][dL][dL][dE][dL][dV][dR][dK][dD][dL][dE][dE][dA][dR][dK][dL][dA][dK][dE][dI][dV][dK][dE][dL]G[dL][dS][dP][dE][dL][dR][dF][dF][dL][dQ][dL][dA][dI][dA][dL][dA][dQ][dR][dD][dP][dE][dV][dA][dR][dR][dI][dL][dE][dR][dA][dL][dN][dL]
notes: source: chemically synthesized, folded
Kd [6]: 1.73 nM and 1.8 nM | koff [6]: 0.000248 s⁻¹ and 0.000243 s⁻¹ | kon [6]: 144000 M⁻¹ s⁻¹ and 135000 M⁻¹ s⁻¹ | Kd [9]: 1.19 nM

The remaining lines, values ahead:

Kd [2]: 7.85 nM and 10.9 nM | koff [2]: 0.000297 s⁻¹ and 0.000322 s⁻¹ | kon [2]: 37800 M⁻¹ s⁻¹ and 29400 M⁻¹ s⁻¹ | Kd [3]: 7.84 ± 0.02 nM
B2: L-57445-evo_(D-TrkA) (designed binder)
chain: STQELVEELLELVRKDLEEARKLAKEIVKELGLSPELRFFLQLAIALAQRDPEVARRILERALNL
notes: the methods name only the three parents

Kd [4]: 25.1 nM and 11.8 nM | koff [4]: 0.00758 s⁻¹ | kon [4]: 302000 M⁻¹ s⁻¹ and 644000 M⁻¹ s⁻¹
B3: L-25367_(D-IL-6) (designed binder)
chain: GEEEVKEYLTRKFKDDPELVRLLREAIEVLLKAGEDPELVLSLIESLIHITGDPRAAVKLAKEFG
notes: source: E. coli Lemo21(DE3), purified (Ni Sepharose, SEC)

Kd [2]: 152 nM | koff [2]: 0.0508 s⁻¹ | kon [2]: 334000 M⁻¹ s⁻¹
B10: L-57445_(D-TrkA) (designed binder)
chain: STEELVEELLELARKDPQEARKLVEEIVKELGLSPERRFELQLAIVLAQRDPELARRILERALNH
notes: as for B3
